Data as given in US20140044644A1 (UNIVERSITY OF ZURICH, published 2014).

Columns and labels:
[1] = target: T1, Aβ42 (synthetic, fibrillar) (UniProt P05067 672-713); experiment: ELISA, Aβ42 coated, rat recombinant ankG in solution
T1 construct: domain: Aβ42; also called fibrillar Aβ42; Aβ42 peptide

[2] = target: T2, Aβ40 (synthetic, fibrillar) (UniProt P05067 672-711); experiment: ELISA, Aβ40 coated, rat recombinant ankG in solution
T2 construct: domain: Aβ40; also called fibrillar Aβ40; Aβ40 peptide
T2 sequence (P05067 672-711 limits assumed): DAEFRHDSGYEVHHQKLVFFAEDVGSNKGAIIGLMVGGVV

T1 sequence (P05067 672-713 limits assumed): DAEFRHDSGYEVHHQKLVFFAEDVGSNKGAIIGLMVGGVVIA

binding result [1]: no binding (tested: ankG 0-2.5 µg/ml) | binding result [2]: no binding (tested: ankG 0-2.5 µg/ml)
B1: rat recombinant ankG (ankyrin G) (other, UniProt O70511-3 1-1806, looked up)
chain: MSEEAKEKTAKPAHRKRKGKKSDANASYLRAARAGHLEKALDYIKNGVDVNICNQNGLNALHLASKEGHVEVVSELLQREANVDAATKKGNTALHIASLAGQAEVVKVLVTNGANVNAQSQNGFTPLYMAAQENHLEVVRFLLDNGASQSLATEDGFTPLAVALQQGHDQVVSLLLENDTKGKVRLPALHIAARKDDTKAAALLLQNDTNADIESKSGFTPLHIAAHYGNINVATLLLNRAAAVDFTARNDITPLHVASKRGNANMVKLLLDRGAKIDAKTRDGLTPLHCGARSGHEQVVEMLLDRAAPILSKTKNGLSPLHMATQGDHLNCVQLLLQHNVPVDDVTNDYLTALHVAAHCGHYKVAKVLLDKKANPNAKALNGFTPLHIACKKNRIRVMELLLKHGASIQAVTESGLTPIHVAAFMGHVNIVSQLMHHGASPNTTNVRGETALHMAARSGQAEVVRYLVQDGAQVEAKAKDDQTPLHISARLGKADIVQQLLQQGASPNAATTSGYTPLHLSAREGHEDVAAFLLDHGASLSITTKKGFTPLHVAAKYGKLEVASLLLQKSASPDAAGKSGLTPLHVAAHYDNQKVALLLLDQGASPHAAAKNGYTPLHIAAKKNQMDIATSLLEYGADANAVTRQGIASVHLAAQEGHVDMVSLLLSRNANVNLSNKSGLTPLHLAAQEDRVNVAEVLVNQGAHVDAQTKMGYTPLHVGCHYGNIKIVNFLLQHSAKVNAKTKNGYTPLHQAAQQGHTHIINVLLQNNASPNELTVNGNTALAIARRLGYISVVDTLKVVTEEIMTTTTITEKHKMNVPETMNEVLDMSDDEGEDAITGDTDKYLGPQDLKELGDDSLPAEGYVGFSLGARSASPKISSDRSYTLNRSSYARDSMMIEELLVPSKEQHLPFTREFDSDSLRHYSWAADTLDNVNLVSSPVHSGFLVSFMVDARGGSMRGSRHHGMRIIIPPRKCTAPTRITCRLVKRHKLANPPPMVEGEGLASRLVEMGPAGAQFLGPVIVEIPHFGSMRGKERELIVLRSENGETWKEHQFDSKNEDLSELLNGMDEELDSPEELGTKRICRIITKDFPQYFAVVSRIKQESNQIGPEGGILSSTTVPLVQASFPEGALTKRIRVGLQAQPVPEETVKKILGNKATFSPIVTVEPRRRKFHKPITMTIPVPPPSGEGVSNGYKGDTTPSLRLLCSITGGTSPAQWEDITGTTPLTFIKDCVSFTTNVSARFWLADCHQVLETVGLASQLYRELICVPYMAKFVVFAKTNDPVESSLRCFCMTDDRVDKTLEQQENFEEVARSKDIEVLEGKPIYVDCYGNLAPLTKGGQQLVFNFYSFKENRLPFSIKVRDTSQEPCGRLSFLKEPKTTKGLPQTAVCNLNITLPAHKKAEKADRRQSFTSLALRPQSPCERTDIRMAIVADHLGLSWTELARELNFSVDEINQIRVENPNSLISQSFMLLKKWVTRDGKNATTDALTSVLTKINRIDIVTLLEGPIFDYGNISGTRSFADENNVFHDPVDGWQNETPSGSLESPAQARRITGGLLDRLDDSSDQVRDPITSYLTGEAGKFEANGNHAEVIPEAKAKAYFPESQNDIGKQSIKENLKPKTHGCGRAEEPVSPLTAYQKSLEETSKLVIEDAPKPCVPVGMKKMTRTPADGKARLNLQEEEGSARSEPKQVKSPGEAFTRMTACCYKDLRHSESDSSSEEERRVTTRVIRRRVIIKGEEAKTIPGESVTEEQFTDEEGNLITRKITRKVIRRIGPQERKQDDVQGEGYKVKTKKEIRNVEKKAH
notes: An immunoreactive band of about 190 kDa is reported; also called purified ankG; recombinant ankG protein
